This note sets out measurements from patent publication EP0762881B1.

This assay addresses anti-dnaJ antibodies in sera obtained from patients with early stage RA. The assay can be described thus: inhibition ELISA; rdnaJ-coated plates, sera 1:100 preincubated with the peptide, goat anti-human IgG detection.

In the case of QKRAAYDQYGHAAFE [wild-type dnaJ peptide …], the inhibition of antibody binding to rdnaJ, fold against control sera came to 3 fold.
